What all share (assay): native gel or EMSA
In series [1] the target is …3 (SEP3), full-length, in vitro translated (Arabidopsis thaliana) (UniProt O22456).
Series [2] has the same target. The source holds these as a separate data set.
Series [3] deals with the molecule itself.
Series [4] concerns the molecule itself. This is another data set of the same source.

In general, stoichiometry N refers to a count of units in the complex or per binding partner.

Like-named read-outs stand apart in the source and are kept apart here.

“…3 (SEP3), full-length, in vitro translated (from UniProt O22456 1-251) (natural protein)”: in series [1], the apparent Kd1/Kd2 (cooperativity of two dimers on DNA) is 83 and the stoichiometry N came out at 2. Also, the stoichiometry N in series [2] came out at 4.

B1: SEP3ΔC, C-terminally truncated SEP3, in vitro translated (domain or fragment)
chain: MGRGRVELKRIENKINRQVTFAKRRNGLLKKAYELSVLCDAEVALIIFSNRGKLYEFCSSSSMLRTLERYQKCNYGAPEPNVPSREALAVELSSQQEYLKLKERYDALQRTQRNLLGEDLGPLSTKELESLERQLDSSLKQIRALRTQFMLDQLNDLQSKERMLTETNKTLRLRLADGYQMPLQLNPN
modifications: 35S-methionine in some experiments
Turning to B1, the “stoichiometry N” value in series [3] was determined as 2. Further, the “apparent Kd1/Kd2 (cooperativity of two dimers on DNA)” value in series [4] turned out to be 89.

For the origin of these results see PMC2615621 (Nucleic Acids Research, 2008).
